Test: soluble on expression in E. coli; label from the status in PepcDB or PDB records

Q: For “MSEPFSVPVTVRGYETDTQGHLNQSVYLNYAEHARWSLLQAAGIRQADLVARGVGPVALETTIRFQRELLAGDEVTVTCAFEWGTGKTFRIRQLVTKADGTVAAEIEAVGGLMDLGERRLVPDPRQRFKELAARPELFGLLEHHHHHH”, which “soluble on expression in E. coli” value is on record?
A: not soluble

Q: For “MSEPPKKPFACAICRNKSSGCHYGVLSCDACKMFFKRTYLMEKYYTCRRQESCYNMDGGNRKCKACRFKKCLEVGMNPELFSRSESQIISTNIPTQLITQDHRNAEFLQKLKILDKTRHEVFKIIDTYENPSFVDLVRQESRLSCYLRPKNISWENTERKLKPWGSLGMLLAVETIKSLDFYPKLLLSDRILLLETVTLKSFHLSVAFDSFSQKKEKILAPDGSEMFPDSLNKMDFCKDLIMRLLTTPVKPLIAMKLTETEYLLLGIIVICNPEIDGLSPSGKAIITAFLQKTINVLLQFCLINNPRSAPSRLLEIISINQILNRQFHASYKLFDALRKQWDPTMSFQKVLVESCKTRGYDLS”, which “soluble on expression in E. coli” value is on record?
A: not soluble

Q: For “MSEQPASLDPVSKQIIEQLQEDGRRSYSAIGKVVGLSEAAVRQRVQKLIDTGVTQIVAVTDPVQVGFSRQAMVGIRCSGDVTEIAARLADVDAIDYVVLTAGAYDILAEIVCENDDHLLAVLNKEIRTIPGVLGTETMVYLKLVKQQYDWGTR”, which “soluble on expression in E. coli” value is on record?
A: not soluble

Q: Which “soluble on expression in E. coli” value does the source give for “MSEQYVYQHGTLGGLMESLMAGTAEIGTLLTQGDFGIGTLEGSNGEIILLDGTLYHANQTGEITILEGEELTPYAAVTRFQEDGAFPVSTETDENIKAQILEKISPNFFAAIKISGLFAKMHVRVAPKQEKPYPPFVEAARNQPEFTAENIQGTVVGFFTPKLFHGASAAGFHLHFISEDHQFGGHILDFGIKQGTVSWMETAELRQHFPVHDADYRNKEIDIAKALSAIEEAE” here?
A: not soluble

Q: For “MSESCNSLTVVFTDSPKIDDHLFAKAIRWADQNPDDTIFWARRKALERIPEIDVEFSMKAGALRRIRFGYSSKKLLQGCIDIALKASIGSEVAAIFCSMSIPQDCPELGCLLAALANFCNVDDGRAVVVIDLRDDNDDEKQEGVEESDPFENANFLEEEIVENPKELSNEPRETQTQEEFLEKLKRVASIYTKNVLLFDGNEEKFSNCF”, which “soluble on expression in E. coli” value is on record?
A: not soluble

Q: Which “soluble on expression in E. coli” value does the source give for “MSETELVGKDELLKAMTMCNSCPDFNLNDLRGKGDNNYQLYDWLIHNLPTAQYVLGKLVELIFSNNLTTGDEKQDEILNNFLYGQTNPEGVTNYHVLVQSIKESIVYGRSGLRFLSKDDGLINVKCNHFGVAQILNKEHYGYKELIGFVIDKKGRAITDVDLREGEIDSEEYFKKGIFVFKNNDNILLPPEKFVNLRVDTSTPKGSSVFDSDIQRVLLIASVYKRLLYDIEYDGAGRLIFWADNANSNEESSNNFLNDTESATKRRQDKYKKEVEEIMKLVKDSNSTSVLAVSNAFKKMDHLPRVTKATEFLSYLNQEGEIMAQVFGVPNVLLGLGKISGNISMEKVIDNAMLNSIIPLRENIATQISSILTNNLKVPKVYFDKYELKSQSDINDRRLKVLTVAERLKALGKEDLANKIIEEEIQL” here?
A: not soluble

Q: For “MSFDKKVTIAHLSDLHFASKNDRYLTARLDTMLGEFVRRKYDHLVMTGDLIDTASPALWTIIRDALVRHGLFDWTKTTVIPGNHDLIDLEEEMRFYNALNPDDRSRQHRVDDRLRQFNAIFRPLITDNGDALAGVPFVKVMRLGGISLSFVAVNTVDPWSGLDNPAGARGSVSPETLRALQEPGVRQVLDDTFIIGLCHHAYKVYGTGALVDQVFDWTMEFKNRDEYLKAMKNLGVRLVLHGHFHRFQVYQANGINFINGGSFRYSPERYGELVINADGRWSHRFVNLALKKLEHHHHHH”, which “soluble on expression in E. coli” value is on record?
A: not soluble

Q: With “MSFEQTLEKYAALAVNVGVNIQPGQTLSISAPLEAVQFVRLVTEKAYKSGAKHVYVDWNDETLTRLKFDLAPEEAFAEFPSWKAHAREELAKEGAAFMSIYAENPDLLKGVEASRIATAHKVAGEAMKVYRDYVQADKVSWCVISVPTKEWAAKVFPDVAPEEQEAKLWDAIFKATRADLENPVEAWKEHDETLHTKVDYLNEKHYKALHYTGPGTDLTIELPEKHVWAGAGSLNEKNVPFMANIPTEEVFTMPLKTGVNGQVSSTKPLVFAGNIIDNFTLTFENGRIVDYKAEAGEEALKHLVETDEGSHFLGEVALVPHDSPISNTNVLFYNTLFDENASCHLAIGNAYAFNLVGGKTMSKEELAENGANASITHNDFMIGSAELDIDGITADGRHEPIFRKGNWAF” as the sequence, how does the “soluble on expression in E. coli” value read?
A: not soluble

Q: For “MSFFKKLKEKISKQTDTVTEKFKQGLEKTRNSFADKVNDLVFRYRKVDEDFFEELEEILIGADVGVSTVMELIDQLKEEVQRRNIQDPREVQAVISEKLIEIYKGDSDFTNEVNMQKDGLTVVLFVGVNGVGKTTTIGKMAHKFKSEGKSVLLAAGDTFRAGAIEQLEVWGDRVGVEVIKQGSGSDPAAVMYDAVQAAKARNVDVLLCDTAGRLQNKVNLMKELEKVKRVIEREVPGAPHEVLLVIDATTGQNGLSQAKTFREATNVTGIVLTKLDGTAKGGIVLAIRNEMDVPVKFVGLGEQMDDLQQFDPEQYVYGLFANLVETEEV”, which “soluble on expression in E. coli” value is on record?
A: not soluble

Q: Which “soluble on expression in E. coli” value does the source give for “MSFLISFDKSKKHPAHLQLANNLKIALALEYASKNLKPEVDNDNAAMELRNTKEPFLLFDANAILRYVMDDFEGQTSDKYQFALASLQNLLYHKELPQQHVEVLTNKAIENYLVELKEPLTTTDLILFANVYALNSSLVHSKFPELPSKVHNAVALAKKH” here?
A: soluble

Q: For “MSFNKEDQQDEALAFLLAVATVESGDAGAFRQRVTQYMTKAYGEDTSKMTMQEQGRAEAVSRLYARADNIYHRIKVNALPRLSRGF”, which “soluble on expression in E. coli” value is on record?
A: not soluble

Q: Which “soluble on expression in E. coli” value does the source give for “MSFRFLILLLLASTLLVNSFPIGKDNESDESEVEVDTTTEAENIEVESQEASLDEQLNEVSEDPTREKRGLYSSERTEEEVEISHGMHHREKRHSEHLPHPDPPSHTAKRSTEHHRVKRSEGHPHEKKATHSPEGHIVAKDDHHGHEKRSSDSHHGHQKRSVDEHHGHQKKNAEDHHEHQKRSEHVEHQAEMHEHQKRSTQEVSGHPEHHLVKRSGGEGGHRHHRSTDQGLDEDEPEDEIQTDENDEVTEEPGSRKRRNTDTPMPSFPSDHDSEHSNSVAIRVKRVSRAGSSHKVRTLNKNRGNSKAGETTQNDSLTPNSGGVFNS” here?
A: not soluble

Q: For “MSGATPVFTEINQIQGTGDKSPLISSGFISDDEYFVQGVVTARGESLLKGFYLQGLNDDFDPNSSEGIFVSTGSAPSLEIQPGALVCVKAKVQEYYGQTQLKPDTNNFLVQGHQAPVSVTELTINENETLAQALERHEGMQVKLTSHSDLRITRNFSFDYASKRNNMVLSHGEPLFKPTQLFAAESPEAIQLAEENAKRQITIESDNKAPNGEVPYFPDFATDSNQDGSADSYLRLGARIEGLEGVIAYSYGQYRLVTTNTISQENIITQAFDEDGDTLFNVERTDEPSIDDADLTITSFNVLNYFTSVAAGGLEHHHHHH”, which “soluble on expression in E. coli” value is on record?
A: not soluble

Q: Which “soluble on expression in E. coli” value does the source give for “MSGDENPASKPTPVQDVQGDGRWMSLHHRFVADSKDKEPEVVFIGDSLVQLMHQCEIWRELFSPLHALNFGIGGDSTQHVLWRLENGELEHIRPKIVVVWVGTNNHGHTAEQVTGGIKAIVQLVNERQPQARVVVLGLLPRGQHPNPLREKNRRVNELVRAALAGHPRAHFLDADPGFVHSDGTISHHDMYDYLHLSRLGYTPVCRALHSLLLRLLTQDQGQGGAPLPEPSP” here?
A: soluble

Q: Which “soluble on expression in E. coli” value does the source give for “MSGEESMPDEEQKQSEEEEEMIRKRTLAMRKKVEEIMRNGAGLVRESNGLPKAGADYELYNSYPTFNTFMKRSEQRLNALMNKVTKSIGCAMRVPDVGSSVEHYTECVIEAQDNIAERAATLHEALKKAELDEIVKVPEFITKAAPTNRKTEAEVSAAMRTFSANIGTVLAEKFRERREEAAQMVVLEKPQKTYNISSDNSQAPFSSKLTVKHHAIEKRTGIVLHDDDESGRRDWISAETETEEEHPYIAEILHFKVPEAQLKSAECLKFTALKDTPLTMIDTKEKLEALTKTLNSVKEFAVDLEHHQMRSYLGLTCLIQISTRDEDFIIDPFPIWDHVGMLNEPFANPRILKVFHGSDSDVLWLQRDYGVHVVNLFDTYVAMKKLKYPKFSLAYLTLRFADVVLDKQYQLADWRARPLRNAMINYAREDTHYLLYSYDMLREQLLKQDTKDLANVYSESSDLCIKVYKKPVFNPKGYLTEIKFRFTLNTRQDYALTHLFKWRDVVARAEDESPHFVLPNHMMLSLSETLPRDVGGIYACCNPLPYFVKQRTGDILKIIVEARDVKLEKVGLSAKERNDAQEARGVMNDTMDHITSVLKSKIDFSHTRFDEERGEIYIDKTDEGMDIELKDHKESLLSVLQTAEIPSVETMIVVEKGKKSDNQKVKKLLNELDKFVTPFECYQMMMITKEKQEEEERKEAERKKLEEGDLPKTMFSHHDAPINRKPEFDAKLLNVDTLKLVPDDPNKPKDPEPSPMEESSSEPQIFDPSRFTDDQLLSKKAMKRKRDAARRNIDVSVVLGESSSSSDPKKKKSDDDAPVEDFDYEKADSSAFEKPVRDNNADFDPFHQKYRLKNKTKKNMAMKKSSNRQGTINYKK” here?
A: not soluble

Q: With “MSGKLYICPTPIGNLEDITYRTLRTLKEVDLIAAEDTRHSIKLLNHFEISKPLTSYHEHNKDSKGDYLINKLIDGENIALISDAGMPGISDPGEEIIKQAIQNNIEIEVLPGA” as the sequence, how does the “soluble on expression in E. coli” value read?
A: not soluble

Q: With “MSGNQMAMGSEQQQTVGSRTVSVEEVPAVLQLRATQDPPRSQEAMPTRHNVRWEENVIDNENMNKKKTKICCIFHPQNEDEEECNHHSDDDGSSSSGSSSSESENEKDLDFNERRQRRLERRHRKLEKKRSYSPNAYEIQPDYSEYRRKQQEKKDMGHHHHHHSH” as the sequence, how does the “soluble on expression in E. coli” value read?
A: soluble

Q: Which “soluble on expression in E. coli” value does the source give for “MSGNSSTDMYLFKKSLKELKGKKGKGTELISVYVPAGRRLSDISQYLRQELSQSSNIKSKTTMKNVQSAIEVILQRLKLLKEPLEMGVIIFAGMIPRGGPGTEKMEVYVLEPPEPVKTFVYRCDSLFYTDPLEDFIQDTEVYGVILVDRNEATIGTVKGKTITVLKKLTSGVPGKFKAGGQSARRLERLIDDAAHQFMVRIGEYATESFMPILEEKKLKGLLLGGPGNTKNEFAEKDYLHHELKKKIIDTFDLCYTEEFGIRELLDKASDLLRDLDLMKEKNLIQKFFKELIKDDGGLSAYGEAQVMKYLEMGAIDTLIVTEDIGITRVTVKCNNCDYAQEVNVKTNEMFKFEEQLKTKACPTCGGAMYIDEEKDIIEHLSDLCHMHNTDIIVVSTDTEEGSQISRAFKGMAAILRYKL” here?
A: not soluble

Q: Which “soluble on expression in E. coli” value does the source give for “MSHALRAVFLDHASLDLGDLDMRPLRAAFDELQLHAASQPQEVAARLHDARVAISNKVPIDAQCIAACPELELILISATGTNNIDLAAARERGIVVANCHGYGTPSVAQHTLALLLALATRLPDYQQAVRSGRWQQSSQFCLLDFPIVELEGKTLGLLGHGELGGAVARLAEAFGMRVLLGQLPGRPARADRLPLGELLPRVDALTLHCPLTEDTRGMLGSAELALMKPGAFLVNTARGGLVDEQALADALRGGHLGGAATDVLSVEPPRNGNPLLAPDIPRLIVTPHNAWGSREARQRIVGQLAENAEAWKAGR” here?
A: not soluble

Q: Which “soluble on expression in E. coli” value does the source give for “MSHKLPSATDKYYFEVLRNEEKSEMLKFLLESFRVDEPLNRASKISCEEIEKCLDGALDRALKTESSILARSQDTHEIVGCMLNSVWRRDESLCTPGEEDKDFEFHTIRKEVAMVAEILNELHESFWSLRPDQDVVLHFEISSVSVNHRRQGLASKFMNWTENKKFLDTFGATGIATEASSLANQALLAKRGYSTIATTLLDTKVDPDTGKPILVCDDGTDRVNLMFKTF” here?
A: not soluble

Q: With “MSHLRIPANWKVKRSTPFFTKENVPAALLSHHNTAAGVFGQLCVMEGTVTYYGFANETATEPEVKVVINAGQFATSPPQYWHRVELSDDARFNIHFWVEEDHQGEEMYQQKKALEHHHHHH” as the sequence, how does the “soluble on expression in E. coli” value read?
A: soluble

Reference: the DeepSol protein solubility set
